Reference: patent US5376640A, “Lipolytic enzyme inhibitors” (Nisshin Flour Milling Co., Ltd., priority 1989, dated 1994)
Read-outs that look alike come from different tables or passages of the source. Where a SMILES comes first, the peptide text is derived from it. Where no end group is shown, it is not given here.

Columns and labels:
[1] = molecular target: Porcine pancreatic lipase (porcine) (UniProt P00591)
[2] = molecular target: Cholesterol esterase isolated from porcine pancreas (porcine)
[3] = molecular target: Porcine pancreatic lipase (porcine) (UniProt P00591); remark: listed apart in the source
[4] = molecular target: T1, porcine pancreatic lipase (Sus scrofa, UniProt P00591); test: Assay of lipase inhibitory activity of proteins (olive oil emulsion with sodium cholate, potassium phosphate buffer pH 6.8); assay type: biochemical; conditions: for Activity of porcine pancreatic lipase: % of control; for Activity of porcine pancreatic lipase (%): protein solution 4 mg/ml, % of control Abs480, sodium cholate present, 37° C., one hour
T1 construct: purchased Sigma Co., Ltd
T1 sequence (P00591 1-450): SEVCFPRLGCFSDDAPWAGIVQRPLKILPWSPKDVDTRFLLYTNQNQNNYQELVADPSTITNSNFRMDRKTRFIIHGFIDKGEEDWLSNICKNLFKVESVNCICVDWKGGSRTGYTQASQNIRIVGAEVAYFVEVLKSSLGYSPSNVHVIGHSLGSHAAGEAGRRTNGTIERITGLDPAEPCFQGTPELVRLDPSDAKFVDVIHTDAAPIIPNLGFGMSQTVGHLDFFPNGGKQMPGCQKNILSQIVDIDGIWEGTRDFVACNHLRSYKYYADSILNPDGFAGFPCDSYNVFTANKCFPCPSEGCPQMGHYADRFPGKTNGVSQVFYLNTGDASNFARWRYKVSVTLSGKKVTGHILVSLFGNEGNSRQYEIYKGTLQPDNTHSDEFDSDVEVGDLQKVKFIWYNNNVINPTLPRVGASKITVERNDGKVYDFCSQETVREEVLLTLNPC
Description: 250 mg of an olive oil, 21.5 mg of sodium cholate as a bile acid component and 30 mg of phosphatidylcholine were added to 5 ml of a 300 mM potassium phosphate buffer solution at pH 6.8 (called hereafter "potassium phosphate buffer").
(§1) The mixture was ultrasonicated to prepare an olive oil emulsion.
Porcine pancreatic lipase (manufactured by Sigma Co., Ltd.) was added to the potassium phosphate buffer solution to prepare a lipase solution containing 100 units porcine pancreatic lipase per ml.
(§2) 100 μl of an olive oil emulsion as prepared above were used as a substrate.
50 μl of potassium phosphate buffer was added to the substrate to prepare an emulsion for control sample. Each 50 μl of the protein(polypeptide)-containing solutions as prepared above was added to 100 μl of the substrate to prepare six emulsions for test samples. All of the emulsions were incubated for 5 min. To each of those emulsions was added 50 μl of the lipase solution as prepared above. The resulting mixture was incubated at 37° C. for one hour, subsequently to which were added 3 ml of an extraction solvent (chloroform:methanol:n-heptane=49:1:49). After being shaken for 5 min., the mixture was centrifuged at 3000 rpm for 5 min. The upper layer was removed with an aspirator and to the remaining solution was added 1 ml of a copper reagent (0.45M triethanol amine, 0.05N acetic acid, 3,4% copper sulfate pentahydrate and 20% sodium chloride). The mixture was shaken for 5 min. and centrifuged at 3000 rpm for 5 min. 0.5 ml of a solution was taken from the upper layer and to the solution was added 0.5 ml of a color developing agent (a solution of 0.1% bathocuproine and 0.05% butyl hydroxyanisole in the above extraction solvent).
The resulting solutions for control and test samples were measured for the absorbance at 480 nm (A480) using a photometer to determine the amount of the free fatty acids as formed, i.e., the activity of the porcine pancreatic lipase.

[5] = molecular target: T1, porcine pancreatic lipase; test: Assay of lipase inhibitory activity (olive oil emulsion with sodium cholate, Tris buffer pH 6.8); assay type: biochemical; conditions: for Activity of porcine pancreatic lipase: peptide solution 1 mg/ml in distilled water, control = 100
Description: 250 mg of an olive oil, 21.5 mg of sodium cholate as a bile acid component and 30 mg of phosphatidylcholine were added to 5 ml of a 200 mM Tris buffer solution at pH 6.8 (called hereafter "Tris buffer").
as §1
Porcine pancreatic lipase (manufactured by Sigma Co., Ltd.) was added to Tris buffer to prepare an enzyme solution containing 100 units porcine pancreatic lipase per ml.
as §2
(§3) 50 μl of Tris buffer was added to the substrate to prepare an emulsion for control sample. Each 50 ml of the protein(polypeptide)-containing solutions as prepared above was added to 100 μl of the substrate to prepare six emulsions for test sample. All of the emulsions were incubated for 5 min. To each of those emulsions was added 50 μl of the lipase solution as prepared above. The resulting mixture was incubated at 37° C. for one hour, subsequently to which were added 3 ml of the same extraction solvent as used in Example 1. After being shaken for 5 min., the mixture was centrifuged at 3000 rpm for 5 min. The upper layer was removed with an aspirator and to the remaining solution was added 1 ml of the same copper reagent as used in Example 1. The mixture was shaken for 5 min. and centrifuged at 3000 rpm for 5 min. 0.5 ml of a solution was taken from the upper layer and to the solution was added 0.5 ml of the same color developing agent as used in Example 1.
The resulting solutions for control and test samples were measured for the absorbance at 480 nm (A480) using a photometer to determine the amount of the free fatty acids as formed, i.e., the activity of the porcine pancreatic lipase. […]
Lysine oligomers having a degree of polymerization of 2-5 as shown in Table 6 below were prepared using a peptide synthesizer (Biolynx 4170, LKB-Pharmacia Co., Ltd.). Each of the oligomers was purified by high performance liquid chromatography. Each of the purified oligomers was added to distilled water to make up to 1 μmol/ml. […] lysine oligomer-containing solutions were thus prepared.
50 μl of Tris buffer was added to the substrate to prepare an emulsion for control sample. Each 50 μof the lysine oligomer-containing solutions as prepared above was added to 100 μl of the substrate to prepare six emulsions for test sample. After incubating the emulsions for 5 min., there was added 50 μl of a lipase solution containing 100 units of porcine pancreatic lipase per ml as prepared in the same way as in Example 4. The resulting mixture was incubated at 37 ° C. for one hour.

[6] = molecular target: Porcine pancreatic lipase (porcine) (UniProt P00591); remark: listed apart in the source
[7] = molecular target: Porcine pancreatic lipase (porcine) (UniProt P00591); remark: listed apart in the source
[8] = molecular target: Porcine pancreatic lipase (porcine) (UniProt P00591); remark: listed apart in the source
[9] = molecular target: Porcine pancreatic lipase (porcine) (UniProt P00591); remark: listed apart in the source
[10] = molecular target: cholesterol esterase isolated from porcine pancreas (Sus scrofa, UniProt A0A286ZKB1); conditions: protein solution 4 mg/ml; % of control Abs480; sodium cholate present; 37° C., one hour
Description: as §2
as §3, with “potassium phosphate” for “Tris”, “Each 50 ml of the protein(polypeptide)-containing solutions as prepared above was added to 100 μl of the substrate to prepare six emulsions for test sample.” left out

[11] = solution of 1 mg in 10 ml Tris buffer, % of control Abs480, sodium cholate present
[12] = lysine oligomer solution 1 μmol/ml, % of control

Sequence of cholesterol esterase isolated from porcine pancreas (A0A286ZKB1 1-682): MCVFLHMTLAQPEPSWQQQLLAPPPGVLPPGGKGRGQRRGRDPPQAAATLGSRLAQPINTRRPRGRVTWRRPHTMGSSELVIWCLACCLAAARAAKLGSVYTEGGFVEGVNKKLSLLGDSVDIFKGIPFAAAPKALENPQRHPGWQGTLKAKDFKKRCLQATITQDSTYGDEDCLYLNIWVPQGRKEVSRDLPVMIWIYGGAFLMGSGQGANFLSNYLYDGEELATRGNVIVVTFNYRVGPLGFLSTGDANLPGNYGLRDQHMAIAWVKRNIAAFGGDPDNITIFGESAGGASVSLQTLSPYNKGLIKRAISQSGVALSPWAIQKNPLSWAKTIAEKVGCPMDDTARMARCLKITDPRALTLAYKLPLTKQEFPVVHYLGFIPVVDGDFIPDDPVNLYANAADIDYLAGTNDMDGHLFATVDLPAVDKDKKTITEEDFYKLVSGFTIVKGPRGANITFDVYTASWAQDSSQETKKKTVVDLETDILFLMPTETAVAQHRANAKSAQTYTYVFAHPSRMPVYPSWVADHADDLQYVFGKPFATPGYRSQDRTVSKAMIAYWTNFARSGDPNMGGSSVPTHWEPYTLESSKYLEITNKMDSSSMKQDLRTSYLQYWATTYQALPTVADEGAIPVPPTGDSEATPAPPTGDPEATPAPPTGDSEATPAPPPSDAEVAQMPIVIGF

## Ovalbumin (A5503, Sigma Co., Ltd.) (from UniProt P01012)
[1]
  Activity of porcine pancreatic lipase (%): 107 % of control
[2]
  Activity of cholesterol esterase (%): 93.6 % of control

## Histone H3 (H4380, Sigma Co., Ltd.)
[3]
  Activity of porcine pancreatic lipase (%), Tris buffer: 2.3 % of control

## β-Purothionin: purified β-purothionin (SEQ ID NO:3) isolated from the crude wheat purothionin mixture; misprinted α-Purothionin in Table 3 (KSCCKSTLGRNCYNLCRARGAQKLCANVCRCKLTSGLSCPKDFPK)
[4]; concentration of 0.04 mg/ml, separate experiment
  Activity of porcine pancreatic lipase: 5.2%
[4]
  Activity of porcine pancreatic lipase (%): 0%
[4]; solution diluted to protein concentration of 0.2 mg/ml
  Activity of porcine pancreatic lipase: 0%
[5]; [11]
  Activity of porcine pancreatic lipase (%): 1.3%

## β-lactoglobulin (L0130, Sigma Co., Ltd.) (from UniProt P02754)
[1]
  Activity of porcine pancreatic lipase (%): 104 % of control
[2]
  Activity of cholesterol esterase (%): 89.9 % of control

## NCCCC[C@H](N)C(=O)NCCCC[C@H](N)C(=O)NCCCC[C@H](N)C(=O)O [ε-(L-lysine)3]
[5]; [12]
  Activity of porcine pancreatic lipase (%): 89.0%

## ε-(L-lysine)3 (peptide)
[6]
  Activity of porcine pancreatic lipase (%): 89 % of control

## NCCCC[C@H](N)C(=O)NCCCC[C@H](N)C(=O)NCCCC[C@H](N)C(=O)NCCCC[C@H](N)C(=O)NCCCC[C@H](N)C(=O)O [ε-(L-lysine)5]
[5]; [12]
  Activity of porcine pancreatic lipase (%): 3.1%

## NCCCC[C@H](N)C(=O)NCCCC[C@H](N)C(=O)NCCCC[C@H](N)C(=O)NCCCC[C@H](N)C(=O)O [ε-(L-lysine)4]
[5]; [12]
  Activity of porcine pancreatic lipase (%): 53.8%

## Protamine (P4005, Sigma Co., Ltd., U.S.A.)
[3]
  Activity of porcine pancreatic lipase (%), Tris buffer: 1.3 % of control

## Protamine
[5]; [11]
  Activity of porcine pancreatic lipase (%): 1.3%

## β-purothionin (SEQ ID NO:3) (peptide)
[7]
  Activity of porcine pancreatic lipase, separate experiment at 0.04 mg/ml: 5.2%
[8]
  Activity of porcine pancreatic lipase, solution diluted to 0.2 mg/ml: 0%
[1]
  Activity of porcine pancreatic lipase (%): 0 % of control
[3]
  Activity of porcine pancreatic lipase (%), Tris buffer: 1.3 % of control

## α2-purothionin (SEQ ID NO:2) (peptide)
[1]
  Activity of porcine pancreatic lipase (%): 0 % of control

## α-poly-L-lysine hydrochloride
[5]
  Activity of porcine pancreatic lipase: 1.6
[5]; [11]
  Activity of porcine pancreatic lipase (%): 6.9%

## α-poly-D-lysine hydrobromide (P7886, Sigma Co., Ltd.) (peptide)
[9]
  Activity of porcine pancreatic lipase (Example 6, 1 mg/ml solution): 1.1 % of control

## NCCCC[C@H](NC(=O)[C@H](CCCCN)NC(=O)[C@H](CCCCN)NC(=O)[C@@H](N)CCCCN)C(=O)O [α-(L-lysine)4] (H-KKKK-OH)
[5]; [12]
  Activity of porcine pancreatic lipase (%): 103.8%

## α-poly-D-lysine hydrobromide
[5]
  Activity of porcine pancreatic lipase: 1.1

## α-poly-L-lysine (3075, Peptide Research Co., Ltd.)
[9]
  Activity of porcine pancreatic lipase (Example 6, 1 mg/ml solution): 1.6 % of control
[3]
  Activity of porcine pancreatic lipase (%), Tris buffer: 6.9 % of control

## β-Lactoglobulin: β-lactoglobulin (L0130, Sigma Co., Ltd.), non-basic comparison protein [reference compound]
[4]
  Activity of porcine pancreatic lipase (%): 103.9%
[10]
  Activity of cholesterol esterase (%): 89.9%

## ε-(L-lysine)4 (SEQ ID NO: 6) (peptide)
[6]
  Activity of porcine pancreatic lipase (%): 53.8 % of control

## Poly-L-arginine (P3892, Sigma Co., Ltd.) (peptide)
[3]
  Activity of porcine pancreatic lipase (%), Tris buffer: 16.5 % of control

## ε-(L-lysine)5 (SEQ ID NO: 7) (peptide)
[6]
  Activity of porcine pancreatic lipase (%): 3.1 % of control

## poly-L-arginine
[5]; [11]
  Activity of porcine pancreatic lipase (%): 16.5%

## α-(L-lysine)2 (peptide)
[6]
  Activity of porcine pancreatic lipase (%): 104 % of control

## Bovine serum albumin (A7030, Sigma Co., Ltd., U.S.A.) (from UniProt P02769)
[1]
  Activity of porcine pancreatic lipase (%): 105 % of control
[2]
  Activity of cholesterol esterase (%): 120 % of control

## Histone H2A (H6881, Sigma Co., Ltd.)
[3]
  Activity of porcine pancreatic lipase (%), Tris buffer: 3.7 % of control

## KKKKK [α-(L-lysine)5]
[5]; [12]
  Activity of porcine pancreatic lipase (%): 2.1%

## NCCCC[C@H](NC(=O)[C@@H](N)CCCCN)C(=O)O [α-(L-lysine)2]
[5]; [12]
  Activity of porcine pancreatic lipase (%): 103.6%

B1: α-(L-lysine)4 (SEQ ID NO: 4) (peptide)
peptide: KKKK
[6]
  Activity of porcine pancreatic lipase (%): 104 % of control

B2: α-(L-lysine)5 (SEQ ID NO: 5) (peptide)
peptide: KKKKK
[6]
  Activity of porcine pancreatic lipase (%): 2.1 % of control

B3: Ovalbumin: ovalbumin (A5503, Sigma Co., Ltd.), non-basic comparison protein (protein, UniProt P01012 2-386, looked up)
Ovalbumin: GSIGAASMEFCFDVFKELKVHHANENIFYCPIAIMSALAMVYLGAKDSTRTQINKVVRFDKLPGFGDSIEAQCGTSVNVHSSLRDILNQITKPNDVYSFSLASRLYAEERYPILPEYLQCVKELYRGGLEPINFQTAADQARELINSWVESQTNGIIRNVLQPSSVDSQTAMVLVNAIVFKGLWEKAFKDEDTQAMPFRVTEQESKPVQMMYQIGLFRVASMASEKMKILELPFASGTMSMLVLLPDEVSGLEQLESIINFEKLTEWTSSNVMEERKIKVYLPRMKMEEKYNLTSVLMAMGITDVFSSSANLSGISSAESLKISQAVHAAHAEINEAGREVVGSAEAGVDAASVSEEFRADHPFLFCIKHIATNAVLFFGRCVSP
[4]
  Activity of porcine pancreatic lipase (%): 107.0%
[10]
  Activity of cholesterol esterase (%): 93.6%
